Reference: patent US11459364B2, “Calbindin and BH3 domain chimeric proteins and methods for use” (ProDa Biotech LLC, priority 2014, dated 2022)

Test system: SW620 cells
Assay: Cell viability of SW620 cells by cell counting after treatment with folate-conjugated chimeric proteins
Type: cell-based
Details: 5 μM, Calbindin D9k host, folate by disulfide bond via 5 kDa PEG, 48 hours
Procedure: (§1) FIG. 3 illustrates the effects of chimeric proteins having different host peptides and the BH3 domain of Bid on the apoptosis of SW620 cells. […] The SW620 cells were treated with 5 μM of the indicated proteins. The proteins were conjugated to folate by a disulfide bond via a 5 kDa PEG. Cell viability was measured by cell counting 48 hours after treatment with the indicated proteins. Buffer treated cells were used as a reference (100% cell viability). The error bars indicate standard deviations across five repeating experiments.
as §1, with “FIG. 4” for “FIG. 3”, “having a Calbindin D9k host peptide and” for “having”, “different” for “different host peptides and the”, “BH3 domains” for “BH3 domain of Bid”, “(100%” for “(100% cell”
FIG. 7 illustrates the effects of a chimeric protein with a Calbindin D9k host protein, a Bid or Bim BH3 domain, and a conjugated folate on SW620 cells. […] Cell viability was measured by counting cells 48 hours after treatment with the indicated proteins. […]

B1: D-Nox: chimeric protein, Calbindin D9k host with BH3 domain of Noxia, Sequence Id No. 8; tested conjugated to folate (protein)
chain: HMSTKKSPEELKRIFEKYAAKEGDPDQLSKDELKLLIQAEFPCLLKGPNTLDDLFQELDKNPAELEVEMATQLRRFGDKLNFRQKLL
modifications: folate conjugate; Chimeric Variant of human protein and a variant of a BH3 domain
notes: tested conjugated to folate
induction of apoptosis (cell viability), comparison of BH3 domains: most effective in inducing apoptosis
